{"source": "paper PMC11145553", "origin": "cited, not measured here", "biological_target": "LRP1 (Homo sapiens) (UniProt Q07954)", "sequence (Q07954 20-4544)": "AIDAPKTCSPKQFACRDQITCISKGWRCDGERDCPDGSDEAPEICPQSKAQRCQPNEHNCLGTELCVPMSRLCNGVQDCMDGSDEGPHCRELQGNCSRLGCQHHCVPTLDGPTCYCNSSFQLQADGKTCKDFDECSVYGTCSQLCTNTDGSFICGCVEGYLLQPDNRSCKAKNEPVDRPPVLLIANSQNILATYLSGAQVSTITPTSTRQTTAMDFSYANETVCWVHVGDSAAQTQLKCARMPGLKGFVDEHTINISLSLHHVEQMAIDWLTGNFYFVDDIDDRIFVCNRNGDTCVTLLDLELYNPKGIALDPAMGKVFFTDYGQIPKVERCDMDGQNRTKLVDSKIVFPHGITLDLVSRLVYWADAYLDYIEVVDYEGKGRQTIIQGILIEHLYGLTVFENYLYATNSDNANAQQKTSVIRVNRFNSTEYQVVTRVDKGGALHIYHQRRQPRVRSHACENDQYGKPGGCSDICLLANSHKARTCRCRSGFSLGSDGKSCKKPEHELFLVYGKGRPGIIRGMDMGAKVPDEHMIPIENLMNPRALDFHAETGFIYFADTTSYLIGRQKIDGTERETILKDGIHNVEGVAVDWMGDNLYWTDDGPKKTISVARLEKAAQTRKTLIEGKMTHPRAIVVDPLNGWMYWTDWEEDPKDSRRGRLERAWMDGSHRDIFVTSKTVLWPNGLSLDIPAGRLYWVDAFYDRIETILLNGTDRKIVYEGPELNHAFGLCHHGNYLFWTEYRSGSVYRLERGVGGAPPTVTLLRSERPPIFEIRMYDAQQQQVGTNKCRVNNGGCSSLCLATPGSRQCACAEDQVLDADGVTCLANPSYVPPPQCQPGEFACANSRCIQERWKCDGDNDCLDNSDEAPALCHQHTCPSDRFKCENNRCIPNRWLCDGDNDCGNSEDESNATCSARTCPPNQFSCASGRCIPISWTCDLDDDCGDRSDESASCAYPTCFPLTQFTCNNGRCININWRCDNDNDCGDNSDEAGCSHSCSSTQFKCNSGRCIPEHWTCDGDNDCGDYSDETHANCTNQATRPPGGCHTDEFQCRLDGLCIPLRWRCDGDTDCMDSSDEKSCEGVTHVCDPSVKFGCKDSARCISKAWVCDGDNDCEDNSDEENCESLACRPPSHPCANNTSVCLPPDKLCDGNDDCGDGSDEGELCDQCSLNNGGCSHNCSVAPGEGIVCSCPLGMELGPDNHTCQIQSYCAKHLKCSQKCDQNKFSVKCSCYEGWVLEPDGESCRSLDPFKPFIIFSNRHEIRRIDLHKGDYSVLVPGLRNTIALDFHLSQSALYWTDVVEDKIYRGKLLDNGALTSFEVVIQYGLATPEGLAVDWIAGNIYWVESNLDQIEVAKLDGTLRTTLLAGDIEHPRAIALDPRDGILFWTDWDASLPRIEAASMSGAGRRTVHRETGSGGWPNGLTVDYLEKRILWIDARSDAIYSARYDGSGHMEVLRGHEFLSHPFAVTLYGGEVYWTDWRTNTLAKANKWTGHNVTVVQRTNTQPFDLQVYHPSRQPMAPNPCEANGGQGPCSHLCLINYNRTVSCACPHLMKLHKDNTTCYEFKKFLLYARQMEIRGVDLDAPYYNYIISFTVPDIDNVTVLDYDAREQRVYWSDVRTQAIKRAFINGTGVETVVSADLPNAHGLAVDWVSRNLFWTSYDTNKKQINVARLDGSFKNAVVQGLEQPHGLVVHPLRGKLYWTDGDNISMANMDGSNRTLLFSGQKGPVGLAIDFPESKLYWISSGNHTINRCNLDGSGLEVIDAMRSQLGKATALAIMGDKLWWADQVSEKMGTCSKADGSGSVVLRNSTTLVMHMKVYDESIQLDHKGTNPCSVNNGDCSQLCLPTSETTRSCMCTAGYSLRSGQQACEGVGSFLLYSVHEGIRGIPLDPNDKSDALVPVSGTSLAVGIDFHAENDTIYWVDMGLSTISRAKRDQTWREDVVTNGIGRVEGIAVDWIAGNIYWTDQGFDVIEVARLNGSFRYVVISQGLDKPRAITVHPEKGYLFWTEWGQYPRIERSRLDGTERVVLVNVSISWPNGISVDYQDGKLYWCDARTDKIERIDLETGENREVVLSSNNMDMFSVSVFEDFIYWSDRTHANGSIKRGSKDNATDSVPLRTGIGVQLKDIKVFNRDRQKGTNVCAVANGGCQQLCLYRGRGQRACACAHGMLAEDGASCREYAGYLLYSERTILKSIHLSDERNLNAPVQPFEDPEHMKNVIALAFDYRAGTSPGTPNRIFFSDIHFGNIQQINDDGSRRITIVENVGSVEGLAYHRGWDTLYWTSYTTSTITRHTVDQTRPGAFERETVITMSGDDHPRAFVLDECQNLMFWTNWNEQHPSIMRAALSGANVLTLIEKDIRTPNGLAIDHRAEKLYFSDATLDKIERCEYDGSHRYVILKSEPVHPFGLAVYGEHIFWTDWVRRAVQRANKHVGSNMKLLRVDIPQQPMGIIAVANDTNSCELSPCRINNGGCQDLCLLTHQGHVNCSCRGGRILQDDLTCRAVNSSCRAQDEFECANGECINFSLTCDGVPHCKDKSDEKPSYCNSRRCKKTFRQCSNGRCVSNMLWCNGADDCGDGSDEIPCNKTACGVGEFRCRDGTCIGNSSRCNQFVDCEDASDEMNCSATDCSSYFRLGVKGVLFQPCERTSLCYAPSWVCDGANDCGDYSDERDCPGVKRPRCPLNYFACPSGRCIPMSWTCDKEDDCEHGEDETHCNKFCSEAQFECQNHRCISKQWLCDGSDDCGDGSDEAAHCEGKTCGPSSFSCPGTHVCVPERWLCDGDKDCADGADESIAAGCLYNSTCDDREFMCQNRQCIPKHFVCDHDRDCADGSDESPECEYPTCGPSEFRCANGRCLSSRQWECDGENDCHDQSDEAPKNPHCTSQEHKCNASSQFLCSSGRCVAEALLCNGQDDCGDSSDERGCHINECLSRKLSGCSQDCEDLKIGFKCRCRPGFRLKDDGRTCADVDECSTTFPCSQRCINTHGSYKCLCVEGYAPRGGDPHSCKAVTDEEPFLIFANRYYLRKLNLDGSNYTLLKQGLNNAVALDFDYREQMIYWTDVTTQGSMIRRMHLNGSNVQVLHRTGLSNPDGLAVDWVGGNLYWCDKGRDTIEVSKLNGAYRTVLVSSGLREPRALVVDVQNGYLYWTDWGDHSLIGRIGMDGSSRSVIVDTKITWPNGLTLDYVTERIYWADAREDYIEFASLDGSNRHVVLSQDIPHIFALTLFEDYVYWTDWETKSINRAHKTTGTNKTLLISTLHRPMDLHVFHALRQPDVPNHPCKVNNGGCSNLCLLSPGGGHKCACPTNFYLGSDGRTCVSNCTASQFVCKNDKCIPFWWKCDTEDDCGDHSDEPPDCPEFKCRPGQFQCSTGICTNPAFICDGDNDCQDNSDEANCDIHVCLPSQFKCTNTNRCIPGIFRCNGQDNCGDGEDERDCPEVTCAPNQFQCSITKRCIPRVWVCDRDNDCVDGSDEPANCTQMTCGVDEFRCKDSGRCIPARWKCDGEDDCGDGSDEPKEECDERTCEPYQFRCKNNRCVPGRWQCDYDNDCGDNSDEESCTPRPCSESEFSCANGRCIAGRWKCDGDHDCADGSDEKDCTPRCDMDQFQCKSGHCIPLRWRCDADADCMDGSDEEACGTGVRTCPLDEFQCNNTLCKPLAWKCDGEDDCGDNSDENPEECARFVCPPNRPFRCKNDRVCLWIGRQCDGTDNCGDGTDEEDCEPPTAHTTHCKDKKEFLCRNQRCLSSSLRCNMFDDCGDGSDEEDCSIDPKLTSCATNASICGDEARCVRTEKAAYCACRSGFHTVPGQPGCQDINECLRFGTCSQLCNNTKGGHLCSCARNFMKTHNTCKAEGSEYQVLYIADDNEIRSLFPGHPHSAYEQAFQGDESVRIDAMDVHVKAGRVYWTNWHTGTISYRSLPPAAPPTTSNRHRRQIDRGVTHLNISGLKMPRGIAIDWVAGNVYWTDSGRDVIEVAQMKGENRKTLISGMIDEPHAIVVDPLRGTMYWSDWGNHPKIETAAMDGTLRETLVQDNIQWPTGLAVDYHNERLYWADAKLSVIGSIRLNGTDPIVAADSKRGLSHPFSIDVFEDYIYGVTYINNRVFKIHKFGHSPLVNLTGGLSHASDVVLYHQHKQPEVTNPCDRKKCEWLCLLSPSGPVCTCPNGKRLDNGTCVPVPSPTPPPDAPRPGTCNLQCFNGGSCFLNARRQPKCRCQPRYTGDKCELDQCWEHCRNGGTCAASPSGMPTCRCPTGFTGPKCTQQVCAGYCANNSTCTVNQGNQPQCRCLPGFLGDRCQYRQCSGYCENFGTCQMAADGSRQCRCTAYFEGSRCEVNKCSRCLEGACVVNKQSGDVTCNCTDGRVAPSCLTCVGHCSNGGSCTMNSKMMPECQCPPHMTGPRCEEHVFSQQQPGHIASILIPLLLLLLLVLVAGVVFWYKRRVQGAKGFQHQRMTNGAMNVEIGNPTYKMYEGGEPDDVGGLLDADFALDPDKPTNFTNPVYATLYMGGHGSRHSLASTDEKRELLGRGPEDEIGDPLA"}
{"substance": "2N4R tau (from UniProt P10636)", "values": [{"measurement": "Kd", "result": 0.06, "unit": "µM"}]}
